Source: patent publication US20240059799A1 (Pfizer, published 2024)

Experiments:
[1] = molecular target: T1, full-length human TL1A on CHO-K1 cells (human, UniProt O95150 1-251); test: flow cytometry, CHO-K1 cells expressing human TL1A, 133 nM; cells, antibody at 133 nM
T1 construct: whole, on cells; also called cells over-expressing human TL1A
T1 sequence (looked up): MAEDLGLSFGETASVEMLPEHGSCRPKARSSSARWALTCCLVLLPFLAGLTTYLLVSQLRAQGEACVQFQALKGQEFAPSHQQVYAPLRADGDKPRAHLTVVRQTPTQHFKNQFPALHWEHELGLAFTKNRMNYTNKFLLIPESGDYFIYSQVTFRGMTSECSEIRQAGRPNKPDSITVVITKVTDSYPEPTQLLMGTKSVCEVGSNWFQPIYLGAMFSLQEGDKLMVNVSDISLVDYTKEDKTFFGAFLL

recombinant human TL1A [2] = molecular target: T2, recombinant human TL1A (human, UniProt O95150 71-251); test: competition ELISA, coated TL1A, competitor bio-TL1A-0002
T2 construct: Homotrimeric cytokine; biotinylated with Sulfo-NHS-biotin where captured for SPR, coated unlabelled in ELISA, soluble in bioassays; also called TNFSF15
T2 chain: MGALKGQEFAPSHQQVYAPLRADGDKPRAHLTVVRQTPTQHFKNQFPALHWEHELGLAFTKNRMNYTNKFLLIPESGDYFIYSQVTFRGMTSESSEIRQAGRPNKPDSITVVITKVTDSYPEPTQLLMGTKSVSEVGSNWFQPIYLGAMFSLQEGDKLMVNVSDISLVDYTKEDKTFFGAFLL

recombinant human TL1A [3] = molecular target: T2, recombinant human TL1A; test: cell-based or functional assay
recombinant human TL1A [4] = molecular target: T3, recombinant human TL1A (human, UniProt O95150 71-251); test: competition ELISA vs bio-TL1A-0002
T3 construct: homotrimer; biotinylated for SPR capture; the ELISA paragraphs say only 'recombinant TL1A'; also called TNFSF15
T3 chain: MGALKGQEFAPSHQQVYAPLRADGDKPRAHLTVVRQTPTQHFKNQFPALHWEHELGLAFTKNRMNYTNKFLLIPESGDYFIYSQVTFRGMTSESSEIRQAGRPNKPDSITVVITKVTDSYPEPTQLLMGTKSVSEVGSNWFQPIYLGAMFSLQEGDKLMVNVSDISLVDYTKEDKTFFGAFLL
Protocol: For this competition ELISA assay procedure, 96-well high binding plates (Corning, product number 3590) were coated with 1 μg/mL recombinant TL1A in 100 μL/well in Phospate Buffered Saline (PBS) overnight at 4° C. Plates were then blocked in PBS+0.02% casein solution and washed with PBS+0.05% Tween-20 following standard ELISA protocol. […] Plates were washed with PBS+0.05% Tween-20 following standard ELISA protocol, and Streptavidin-HRP (Southern Biotech, product number 7100-05) diluted to 1:10,000 in assay buffer was added to plates and incubated for 25-30 minutes at room temperature. Next, the plates were washed with PBS+0.05% Tween-20 following standard ELISA protocol, and then TMB substrate (BioFX Laboratories, catalog number TMBW-0100-01) was added to plates. Reactions were stopped after approximately 5 minutes by adding 0.18 M ortho-phosphoric acid to each well and absorbance was read at 450 nm.

recombinant human TL1A [5] = molecular target: T3, recombinant human TL1A; test: ELISA, biotinylated antibody on coated recombinant TL1A
recombinant human TL1A [6] = molecular target: T3, recombinant human TL1A; test: competition ELISA vs bio-TL1A-0002

B1: TL1A-0002 (antibody, human IgG1, kappa, V domains shown)
VH: QVQLVQSGAEVKKPGASVKVSCKASGYDFTYYGISWVRQAPGQGLEWMGWISTYNGNTHYARMLQGRVTMTTDTSTRTAYMELRSLRSDDTAVYYCARENYYGSGAYRGGMDVWGQGTTVTVSS
VL: EIVLTQSPATLSLSPGERATLSCRASQSVSSYLAWYQQKPGQAPRLLIYDASNRATGIPARFSGSGSGTDFTLTISSLEPEDFAVYYCQQRSNWPWTFGQGTKVEIKR
notes: human IgG1 effector-function-minimized/kappa; also called parental TL1A-0002
binding result [1]: binds
Bioactivity relative to TL1A-0002 (recombinant human TL1A [2]): 1 fold
IC50 (recombinant human TL1A [2]): 5 nM
TF-1 NF-κB reporter cell bioassay IC50 (recombinant human TL1A [3]): 34.7 nM
TF-1 NF-κB reporter cell bioassay, Bioactivity relative to TL1A-0002 (recombinant human TL1A [3]): 1 fold
Whole blood IFNγ assay IC50 (recombinant human TL1A [3]): 0.83 nM
Whole blood IFNγ assay, Bioactivity relative to TL1A-0002 (recombinant human TL1A [3]): 1 fold

B2: TL1A-0002 (antibody, human IgG1, kappa, V domains shown)
VH: QVQLVQSGAEVKKPGASVKVSCKASGYDFTYYGISWVRQAPGQGLEWMGWISTYNGNTHYARMLQGRVTMTTDTSTRTAYMELRSLRSDDTAVYYCARENYYGSGAYRGGMDVWGQGTTVTVSS
VL: EIVLTQSPATLSLSPGERATLSCRASQSVSSYLAWYQQKPGQAPRLLIYDASNRATGIPARFSGSGSGTDFTLTISSLEPEDFAVYYCQQRSNWPWTFGQGTKVEIKR
notes: human IgG1/kappa, effector function minimized; also called bioTL1A-0002 (biotinylated)
Bioactivity relative to TL1A-0002 (recombinant human TL1A [4]): 1 fold
IC50 (recombinant human TL1A [4]): 4.5 nM
EC50 (recombinant human TL1A [5]): 5 ng/mL
Bioactivity relative to TL1A-0002 (recombinant human TL1A [6]): 1 fold
IC50 (recombinant human TL1A [6]): 4.5 nM
